From the RNAGym collection of RNA variant scans (doi:10.1073/pnas.2313332121)

B1: TPR t1 (parent)
chain: GACCAAUCUGCCCUCAGAGCUCGAGAACAUCUUCGGAUGCAGAGGAGGCAGGCUUCGGUGGCGCGAUAGCGCCAACGUCCUCAACCUCCAAUGCAUCCCACCACAUGAUGAUGCCUGAAGAGCCUUGGUUUUUUG

Variants of: B1
Assay: polymerase ribozyme fitness, log enrichment relative to wild type (log ratio); higher = more active; in vitro selection for triplet polymerase activity
Summary of the method: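 Both subunits of a heterodimeric triplet polymerase ribozyme were given their own mutant library, built by PCR and transcribed. Each library was annealed with a biotinylated primer, the partner subunit and triplets, incubated frozen at −7 °C, and its extended constructs gel-excised, captured on streptavidin beads and amplified by RT-PCR, all in one round done in triplicate. Fitness is the logarithm of genotype enrichment relative to wild-type enrichment, with replicates averaged by inverse-variance weighting. That logarithm is base 2, and Illumina-sequenced genotypes needed ≥10 input reads and ≥1 read per output.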

Variant | polymerase ribozyme fitness (log ratio)
A5U G10A G17C | -4.03
A5U G17A C49A G60A C89U | -5.58
A5U G19A G57U U78G G113U G135U | -4.71
A5U G25U C53U G69C C94U | -7.17
A5U G39U G45U C82A C123A | -2.8
A5U G39U G47C C72U | -4.21
A5U G42C U87A A91G | -1.35
A5U G44U C72A A91C G113C U126G G128A | -5.74
A5U G45A | -1.11
A5U G45C G60A | -0.71
A5U G45U | -1.13
A5U G47C C62U G113C A118U | -4.96
A5U G48U | -1.69
A5U G48U C56U G93A | -0.937
A5U G51A | -3.23
A5U G51U G77U | -4.52
A5U G52C G61C U129A | -2.2
A5U G52U U112G | -0.382
A5U G57A | -0.568
A5U G57A C70U | -1.67
A5U G61U | -0.313

Variant | polymerase ribozyme fitness (log ratio)
A5U G63U A75U | -0.67
A5U G63U C102A | -3.19
A5U G63U G65C C80U C85U A95G C97U C115U | -6.48
A5U G69U A91C G113A U116C U130C | -5.42
A5U G71A C98U G127A G128U | -5.31
A5U G71C | -2.73
A5U G71C U106G | -3.95
A5U G113C U125G U132A | -1.99
A5U G120U | 0.128
A5U U7A C40G U55G C56U G60A | -3.04
A5U U9A G48U C49G C101A | -1.73
A5U U14C A50U C72A C124A U131G | -1.27
A5U U32C C124G G128U | -0.425
A5U U33C | -3.68
A5U U81A A90C U92C | -3.49
A5U U87A | -0.245
A5U U87G | -0.121
A5U U92C | -1.56
A5U U96A | -0.893
A5U U112G | -0.587
A5U U129A | -1.34

Variant | polymerase ribozyme fitness (log ratio)
A6C A18C C49U C70U C82U | -5.19
A6C A18U G47U U125G | -3.87
A6C A18U G52C C79U C89U C101U | -2.96
A6C A27G C49U C79A U81A | -6.28
A6C A37U G47U G52U G63C C124U | -4.06
A6C A41G C70U G117U | -7.14
A6C A43G U78G A91G | -2.53
A6C A46U C56U | -1.22
A6C A50C G127A G128U | -3.5
A6C A50U C76G U96G | -2.15
A6C A83C C97U G110A | -1.92
A6C C8A G60A U87A | -0.0712
A6C C11G C40U C123U | 0.00495
A6C C13A G48C C49G | -3.01
A6C C13G G17A A18G | -4.66
A6C C20A A26C G60A U116C U132C | -7.63
A6C C40G C56G | -2.36
A6C C40U G107U C124U | -4.44
A6C C70G | -2.95
A6C C70U | -0.65
A6C C72G A108G C115U | -4.82

Variant | polymerase ribozyme fitness (log ratio)
A6C C72G U87A U112A G113U G117C U130G | -5.39
A6C C73U C85A C114U | -3.29
A6C C79A | -0.901
A6C C94U U106A G113C U126C U133G | -4.12
A6C C97A | -4.04
A6C C101A | -1.63
A6C C104A | -1.61
A6C G10A A37G G77A C79U C124A | -0.0414
A6C G10A C13U G36U G51U G77C A90C G120U | -4.97
A6C G17C U87C | -3.71
A6C G19A A41C C70A | -4.25
A6C G42C | -1.69
A6C G42U C79U A90C | -0.731
A6C G44U C64U U96A C104A | -3.82
A6C G45A | -2.73
A6C G47U G69C C85A | -4.06
A6C G48U C53U U59G C70U A90C | -4.07
A6C G48U U87C G110U | -2
A6C G52C | -0.394
A6C G61U U92C U129C | -2.43
A6C G63A U87G C88A | -1.25
